{"source": "the supplement of paper PMC10724198", "note": "± gives the standard deviation of the averaged measurements."}
{"system": "Saccharomyces cerevisiae", "assay": "protein stability index of tFT-peptide fusion (C-terminal peptide) (PSI (0-1 scale)); higher = more stable (slower turnover)", "conditions": "genetic background: wild type; temperature: 30 C", "procedure": "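MPS profiling in S. cerevisiae of the yeast C-terminome library: the last 12 aa of each annotated ORF are fused to the C-terminus of a sfGFP-mCherry timer, after a GGGS linker. Cells are FACS-sorted into 8 mCherry/sfGFP bins and deep-sequenced. PSI runs from 0 (unstable) to 1 (stable); wild type and das1Δ backgrounds, two technical replicates each.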"}
{"sequence": "KFFNYDGSEGVF [OSI1 C-terminal 12 aa]", "protein stability index": "0.715 ± 0.022"}
{"sequence": "KGAFQKVAATSR [RPL24A C-terminal 12 aa]", "protein stability index": "0.685 ± 0.0079"}
{"sequence": "KGISIVESTFIS [YDR222W C-terminal 12 aa]", "protein stability index": "0.673 ± 0.022"}
{"sequence": "KGKSFILDSSKL [MDH3 C-terminal 12 aa]", "protein stability index": "0.733 ± 0.039"}
{"sequence": "KGLVIVKDAIIL [PFF1 C-terminal 12 aa]", "protein stability index": "0.697 ± 0.01"}
{"sequence": "KGNSMVVHGAQS [SHE3 C-terminal 12 aa]", "protein stability index": "0.6853 ± 0.0059"}
{"sequence": "KIKKIVLKRSFD [NMD2 C-terminal 12 aa]", "protein stability index": "0.654 ± 0.022"}
{"sequence": "KISKSELEGVPS [MTC6 C-terminal 12 aa]", "protein stability index": "0.714 ± 0.045"}
{"sequence": "KITEKWTHKDFK [NOP53 C-terminal 12 aa]", "protein stability index": "0.719 ± 0.058"}
{"sequence": "KITVSNLTNQQI [YCL001W-B C-terminal 12 aa]", "protein stability index": "0.684 ± 0.04"}
{"sequence": "KIVIPDKFIQHI [HRD1 C-terminal 12 aa]", "protein stability index": "0.706 ± 0.028"}
{"sequence": "KKAPYFLPAPHT [FMO1 C-terminal 12 aa]", "protein stability index": "0.715 ± 0.0093"}
{"sequence": "KKEKISKYVSKS [OPI11 C-terminal 12 aa]", "protein stability index": "0.683 ± 0.035"}
{"sequence": "KKEPGANCCIIL [RHO2 C-terminal 12 aa]", "protein stability index": "0.72 ± 0.021"}
{"sequence": "KKIVIIYVVRFH [BSC4 C-terminal 12 aa]", "protein stability index": "0.339 ± 0.01"}
{"sequence": "KKKAINEKAEQN [SEC62 C-terminal 12 aa]", "protein stability index": "0.635 ± 0.02"}
{"sequence": "KKKKSLFLFGKI [YOR019W C-terminal 12 aa]", "protein stability index": "0.6688 ± 0.0015"}
{"sequence": "KKKYKFHQGLSI [SOL2 C-terminal 12 aa]", "protein stability index": "0.695 ± 0.02"}
{"sequence": "KKLSNDGETQAN [DMO2 C-terminal 12 aa]", "protein stability index": "0.655 ± 0.011"}
{"sequence": "KKRISEKQHFIE [AMF1 C-terminal 12 aa]", "protein stability index": "0.633 ± 0.016"}
{"sequence": "KKRNWKRREASS [NRG2 C-terminal 12 aa]", "protein stability index": "0.626 ± 0.044"}
{"sequence": "KKRRIHPTPVDL [CAC2 C-terminal 12 aa]", "protein stability index": "0.724 ± 0.027"}
{"sequence": "KKVLLQAKQYSK [UBC9 C-terminal 12 aa]", "protein stability index": "0.682 ± 0.031"}
{"sequence": "KLEKKQSERSTH [STE7 C-terminal 12 aa]", "protein stability index": "0.769 ± 0.067"}
{"sequence": "KLFESGQDSFDN [MRC1 C-terminal 12 aa]", "protein stability index": "0.727 ± 0.022"}
{"sequence": "KLGEAEVQGLIM [YDR340W C-terminal 12 aa]", "protein stability index": "0.688 ± 0.0056"}
{"sequence": "KLGSYLRDYLRK [GLO3 C-terminal 12 aa]", "protein stability index": "0.689 ± 0.0095"}
{"sequence": "KMFAKYRENSRI [DYN3 C-terminal 12 aa]", "protein stability index": "0.667 ± 0.0047"}
{"sequence": "KMLWQGITDYYI [YOL163W C-terminal 12 aa]", "protein stability index": "0.717 ± 0.021"}
{"sequence": "KMQGKYIKKKAM [YNR001W-A C-terminal 12 aa]", "protein stability index": "0.385 ± 0.024"}
{"sequence": "KNDKIHLFMYCT [YBR103C-A C-terminal 12 aa]", "protein stability index": "0.536 ± 0.0038"}
{"sequence": "KNGYGNSNASWW [DBP1 C-terminal 12 aa]", "protein stability index": "0.691 ± 0.027"}
{"sequence": "KNNEVLLHKIKI [FAR8 C-terminal 12 aa]", "protein stability index": "0.669 ± 0.056"}
{"sequence": "KNVMRRGQFMKR [GRC3 C-terminal 12 aa]", "protein stability index": "0.753 ± 0.048"}
{"sequence": "KPSAKPVDLSKL [DAL7 C-terminal 12 aa]", "protein stability index": "0.846 ± 0.069"}
{"sequence": "KPTASSSRKMFR [DUO1 C-terminal 12 aa]", "protein stability index": "0.722 ± 0.051"}
{"sequence": "KQKAFIQPKLVF [UTP4 C-terminal 12 aa]", "protein stability index": "0.692 ± 0.017"}
{"sequence": "KQKALRGEFGAF [RNA15 C-terminal 12 aa]", "protein stability index": "0.688 ± 0.01"}
{"sequence": "KQNSSITQKNSS [EPL1 C-terminal 12 aa]", "protein stability index": "0.697 ± 0.031"}
{"sequence": "KQVNEDADSDLL [KEL1 C-terminal 12 aa]", "protein stability index": "0.682 ± 0.013"}
{"sequence": "KRMALFVQEKLA [YFL031C-A C-terminal 12 aa]", "protein stability index": "0.18 ± 0.0051"}
{"sequence": "KRPPLPNMSFSW [YLL019W-A C-terminal 12 aa]", "protein stability index": "0.728 ± 0.028"}
{"sequence": "KRTKTKITSNNG [YBR190W C-terminal 12 aa]", "protein stability index": "0.69 ± 0.018"}
{"sequence": "KSEVERVYKENS [FAA3 C-terminal 12 aa]", "protein stability index": "0.6803 ± 0.0059"}
{"sequence": "KSLAECQELLKN [TPD3 C-terminal 12 aa]", "protein stability index": "0.663 ± 0.061"}
{"sequence": "KTITIGNLPNSI [UGA2 C-terminal 12 aa]", "protein stability index": "0.715 ± 0.026"}
{"sequence": "KTPNTKRRKTHK [HAS1 C-terminal 12 aa]", "protein stability index": "0.75 ± 0.036"}
{"sequence": "KTTPRNVELFGM [DXO1 C-terminal 12 aa]", "protein stability index": "0.693 ± 0.018"}
{"sequence": "KVCVCMTINSYN [YDR154C C-terminal 12 aa]", "protein stability index": "0.583 ± 0.018"}
{"sequence": "KVTKAAQKAAKK [YPR080W; YBR118W C-terminal 12 aa]", "protein stability index": "0.696 ± 0.012"}
{"sequence": "KWCASYSAGNRR [YLR280C C-terminal 12 aa]", "protein stability index": "0.6752 ± 0.0061"}
{"sequence": "KYESATASALVN [RPS13 C-terminal 12 aa]", "protein stability index": "0.702 ± 0.015"}
{"sequence": "KYFHEDVSEDAY [MET5 C-terminal 12 aa]", "protein stability index": "0.699 ± 0.013"}
{"sequence": "LADEEDAIHDEL [PDI1 C-terminal 12 aa]", "protein stability index": "0.678 ± 0.023"}
{"sequence": "LAEVIGVLLKDM [AIM10 C-terminal 12 aa]", "protein stability index": "0.646 ± 0.038"}
{"sequence": "LDAILLDIICND [MDM1 C-terminal 12 aa]", "protein stability index": "0.735 ± 0.045"}
{"sequence": "LEEVEVNDFIQE [SWM2 C-terminal 12 aa]", "protein stability index": "0.682 ± 0.02"}
{"sequence": "LEKEKLFNNGNH [PRI2 C-terminal 12 aa]", "protein stability index": "0.722 ± 0.055"}
{"sequence": "LEKLCQKQSSTK [CMC1 C-terminal 12 aa]", "protein stability index": "0.712 ± 0.066"}
{"sequence": "LELCKLASNNLE [RRI2 C-terminal 12 aa]", "protein stability index": "0.703 ± 0.04"}
{"sequence": "LELQSRIESYLF [CNN1 C-terminal 12 aa]", "protein stability index": "0.715 ± 0.047"}
{"sequence": "LERIVGLLLMDM [MHF2 C-terminal 12 aa]", "protein stability index": "0.651 ± 0.011"}
{"sequence": "LFFGGEKVHSLK [NGL3 C-terminal 12 aa]", "protein stability index": "0.715 ± 0.026"}
{"sequence": "LFYNIRCLGKQF [YAR030C C-terminal 12 aa]", "protein stability index": "0.3967 ± 0.0018"}
{"sequence": "LFYQTIGEFASL [ATF2 C-terminal 12 aa]", "protein stability index": "0.721 ± 0.037"}
{"sequence": "LGKGGKGKRKMK [LSO2 C-terminal 12 aa]", "protein stability index": "0.64 ± 0.018"}
{"sequence": "LGNNAVGLAKAI [PEP4 C-terminal 12 aa]", "protein stability index": "0.678 ± 0.055"}
{"sequence": "LGQAVVKAINFA [YBR277C C-terminal 12 aa]", "protein stability index": "0.702 ± 0.041"}
{"sequence": "LHENQLLKWLSK [RRN5 C-terminal 12 aa]", "protein stability index": "0.7 ± 0.008"}
{"sequence": "LIDSYCLGGESR [YPL034W C-terminal 12 aa]", "protein stability index": "0.697 ± 0.039"}
{"sequence": "LIEKNFLSSHAG [YJR071W C-terminal 12 aa]", "protein stability index": "0.708 ± 0.022"}
{"sequence": "LIFQRKYTAKEF [DTR1 C-terminal 12 aa]", "protein stability index": "0.678 ± 0.035"}
{"sequence": "LIHNFNSRYCHE [LEE1 C-terminal 12 aa]", "protein stability index": "0.691 ± 0.0088"}
{"sequence": "LINGTRIMNSIS [VPS33 C-terminal 12 aa]", "protein stability index": "0.532 ± 0.0095"}
{"sequence": "LISFGMGNTQVI [CLN2 C-terminal 12 aa]", "protein stability index": "0.6846 ± 0.004"}
{"sequence": "LITSHCCYWNKR [YBL039C-A C-terminal 12 aa]", "protein stability index": "0.52 ± 0.033"}
{"sequence": "LKKIATKFWGKH [TRK2 C-terminal 12 aa]", "protein stability index": "0.714 ± 0.066"}
{"sequence": "LKNYLEAQIAKK [YPR097W C-terminal 12 aa]", "protein stability index": "0.721 ± 0.016"}
{"sequence": "LKPWEGRIYLVK [MAL12 C-terminal 12 aa]", "protein stability index": "0.697 ± 0.022"}
{"sequence": "LKQKALVAAKQS [YJR015W C-terminal 12 aa]", "protein stability index": "0.319 ± 0.03"}
{"sequence": "LKSIYTSERITI [RAD61 C-terminal 12 aa]", "protein stability index": "0.667 ± 0.025"}
{"sequence": "LKTPQEYESKAK [BOL1 C-terminal 12 aa]", "protein stability index": "0.753 ± 0.069"}
